Results from patent publication US9040266B2, “Cell-based systems for production of methyl formate” (The Regents of the University of California, priority 2009, dated 2015).

B1: C. neoformans JEC21: methyl halide transferase (hypothetical protein) from Cryptococcus neoformans var. neoformans JEC21, SEQ ID NO: 12 (protein)
chain: MAQASGDDNAWEERWAQGRTAFDQSAAHPVFVKFLKSDIARELGVPKSGKALVPGCGRGYDVHLLASTGLDAIGLDLAPTGVEAARRWIGSQPSTSGKADILVQDFFTYDPLEKFDLIYDYTFLCALPPSLRQEWARQTTHLANIAADTNPILITLMYPLPPSAKSGGPPFALSEEIYQELLKEQGWKMVWSEDIEEPTRMVGAPGGEKLAVWKRI
modifications: Cryptococcus neoformans
B2: Leptospirillum: methyl halide transferase from Leptospirillum sp. Group II UBA, SEQ ID NO: 11 (protein)
chain: MPDKIFWNQRYLDKNTGWDLGQPAPPFVRLVEKGEFGPPGRVLIPGAGRSYEGIFLASRGYDVTCVDFAPQAVREAREAARQAGVKLTVVEEDFFRLDPRTIGVFDYLVEHTCFCAIDPPMRQAYVDQSHALLAPGGLLIGLFYAHGREGGPPWTTTEEEVRGLFGKKFDLLSLGLTDWSVDSRKGEELLGRLRRKNDRIE
modifications: Leptospirillum species, synthetic polypeptide of methyl halide transferase thereof
B3: B. phymatum: methyl halide transferase from Burkholderia phymatum STM815, SEQ ID NO: 4 (protein, listed as Burkholderia phymatum)
chain: MSDKRPSVPPSAPDFENRDPNAPGFWDERFGRGFTPWDQAGVPPAFKAFVERHSPVPVLIPGCGSAYEARWLAEKGWTVRAIDFAPNAVEAARAQLGSHASLVHEADFFTYRPPFDPGWIYERAFLCALPPARRSDWVARMAQLLSPGGLLAGFFFIGATEKGPPFGIERAELDALMSPDFTLVEDEPVDDSIAVFAGRERWLTWRRRGAARG
B4: FB: methyl halide transferase from Flavobacteria bacterium BBFL7, SEQ ID NO: 19 (protein, listed as Flavobacteria bacterium)
chain: MPLNKQYWEDRYKNNSTGWDLGIISTPIKEYVNQLENKNSKILIPGAGNAHEATYLVKNGFKNIFILDIALSPLKFAKQRSKLPEEHLIQQDFFDHKGSYDLIIEQTFFCALEPRFRESYVKKIHMLLRDQGCLIGVLFNFENNLSSPPFGGSINEYLNLFEPYFEIVTMEPCNNSVIERQGKEIFIKLKKKK
B5: VV: methyl halide transferase from Vitis vinifera, SEQ ID NO: 20 (protein, listed as Vitis vinifera)
chain: MASPDNTKPKARSSESVTGQRRGRRPSDRHWPCVGEESGSFYNTIADGERQYQHRIELRASKNKPSSWEEKWQQGLTPWDLGKATPIIEHLHQAGALPNGRTLIPGCGRGYDVVAIACPERFVVGLDISDSAIKKAKESSSSSWNASHFIFLKADFFTWNPTELFDLIIDYTFFCAIEPDMRPAWASRMQQLLKPDGELLTLMFPISDHTGGPPYKVSIADYEKVLHPMRFKAVSIVDNEMAIGSRKKKYPLKPDLSLFGFVDRPKRAYEARSEEFRISDWVCGWMGLCVPSGRISGGVCGLLSGRSLTWAKNLGVSTTQLRMSNNGSSIESNPKVQKLNQIIGSDSAGGWEKSWQQGHTPWDLGKPTPIIQHLHQTGTLPSGKTLVPGCGCGYDVVTIACPERFVVGLDISDSAIKKAKEISDHAGGPPYKVSVADYEEVLHPMGFKAVSIVDNKMAIGPRKGREKLGRWKRTPSKSLL
B6: O. sativa: methyl halide transferase from Oryza sativa (japonica cultivar-group), SEQ ID NO: 13 (protein, listed as Oryza sativa)
chain: MASAIVDVAGGGRQQALDGSNPAVARLRQLIGGGQESSDGWSRCWEEGVTPWDLGQRTPAVVELVHSGTLPAGDATTVLVPGCGAGYDVVALSGPGRFVVGLDICDTAIQKAKQLSAAAAAAADGGDGSSSFFAFVADDFFTWEPPEPFHLIFDYTFFCALHPSMRPAWAKRMADLLRPDGELITLMYLAEGQEAGPPFNTTVLDYKEVLNPLGLVITSIEDNEVAVEPRKGMEKIARWKRMTKSD
B7: RB: methyl halide transferase from Robiginitalea bofirmata HTCC2501, SEQ ID NO: 17 (protein, listed as Robiginitalea biformata)
chain: MTDLDRDFWEDRYRAGTDRWDLGGPSPPLTAYIDGLTDQELRILVPGAGRGYEAEYLYRAGFENLTIVDLARRPLDDLRRRLPELPAAALQQTDFFSFRGGPFDLILEHTFFCALPPARRPDYVQAMHRLLVPGGRLAGLFFDFPLTEDGPPFGGSETEYRNRFSSLFHIRKLERARNSIPPRAGTELFFIFEKK
B8: AT-2: methyl halide transferase from Arabidopsis thaliana TM2, SEQ ID NO: 10 (protein, listed as Arabidopsis thaliana)
chain: MAEEQQNSDQSNGGNVIPTPEEVATFLHKTVEEGGWEKCWEEEITPWDQGRATPLIVHLVDTSSLPLGRALVPGCGGGHDVVAMASPERFVVGLDISESALAKANETYGSSPKAEYFSFVKEDVFTWRPTELFDLIFDYVFFCAIEPEMRPAWAKSMYELLKPDGELITLMYPITDHVGGPPYKVDVSTFEEVLVPIGFKAVSVEENPHAIPTRQREAGKVEEDQLIPKKEILLFGKSVICVIYKE
B9: O. tauri: methyl halide transferase (unnamed protein product) from Ostreococcus tauri, SEQ ID NO: 14 (protein, listed as Ostreococcus tauri)
chain: MTTSSAPTRHTSMRVALAAPATVTRRLGTYKRVFDRRAMSTRAIDGAVTSNAGDFARQDGSTDWEGMWSRGITKGAAFDCSRTEPAFQNALDAKEIAIGSGRALVPGCGRGYALASLARAGFGDVVGLEISETAKEACEEQLKAESIPETARVEVVVADFFAYDPKEAFDAAYDCTFLCAIDPRRREEWARKHASLIKPGGTLVCLVFPVGDFEGGPPYALTPEIVRELLAPAGFEEIELRETPAEMYARGRLEYLFTWRRRS
B10: MM: methyl halide transferase from Maricaulis maris MCS10, SEQ ID NO: 18 (protein, listed as Maricaulis maris)
chain: MTHDENRSAFDWEARFIDGNTPWERGALHPAFEAWQHQSAFAAGDRALIPGCGRSPELLALAQAGLAVTGADLSGTAMAWQRKLFADAGQQVELITGDVFDWQPQQALDLVYEQTFLCAIHPRLRTRYEEALARWLKPGGRLYALFMQKPERGGPPFDCALDAMRALFPAERWTWPAEADIQPWPHPQLNGKAELGAVLIRR
B11: HH: methyl halide transferase from Halorhodospira halophila SL1, SEQ ID NO: 21 (protein, listed as Halorhodospira halophila)
chain: MSGDPDPRRAPWEARWREGRTGWDRGGVSPTLEAWLSAGVIPGRRVLVPGAGRGYEVEALARRGYKVTAVDIAAEACQQLRDGLDAAGVEARVVQADLLAWQPDTPFDAVYEQTCLCALDPADWPAYEQRLYGWLRPGGVLLALFMQTGASGGPPFHCALPEMATLFDSERWQWPAEPPRQWPHPSGRWEEAVRLLRR

system: methyl bromide and methyl iodide production in E. Coli; assay: Methyl halide production by heterologous MHTs expressed in E. coli (Example 8, headspace GC/MS); assay type: cell-based; settings: 165 mM NaX, 100 uM IPTG, 1.5 hours, FIG. 7
Protocol: Nineteen methyl halide transferase genes from various organisms were codon-optimized and introduced into E. Coli. Production of methyl bromide and methyl iodide was determined for each. […] Group II UBA; Cryptococcus neoformans var. neoformans JEC21; Oryza sativa (japonica cultivar-group); Ostreococcus tauri; Dechloromonas aromatica RCB; Coprinopsis cinerea okayama; Robiginitalea bofirmata HTCC2501; Maricaulis maris MCS10; Flavobacteria bacterium BBFL7; Vitis vinifera and; halorhodospira halophila SL1.
For each strain a single colony was picked and grown overnight (10-14 hrs) in 20 mL of LB miller in a 30 mL glass test tube with aeration (a loose cap) at 37 C and 250 rpm shaking. The culture was spun down in a swinging bucket centrifuge for 5 min @ 3000×g. The cells were resuspended in 20mL of appropriate media (10 g/L Tryptone, 5 g/L Yeast Extract, 165 mM NaX [where X=CI, Br, I]) containing 100 uM IPTG inducer. The cells were sealed with rubber stoppers and parafilm and grown at 37 C with 250 rpm shaking for 1.5 hours. Cultures were taken to the GC/MS and 100 uL of headspace gas was sampled and loaded onto the column. The method run was VOIGT.m. The number of counts for the appropriate mass (MeCl, MeBr, MeI) were reported. Cells were always grown in the presence of 30 ug/mL chloramphenicol.
Methyl halide production was measured as described in the previous Examples. […] C. neoformans JEC21 gave the best methyl bromide and methyl iodide production. Leptospirillum gave the best methyl iodide production.

Row | Molecule | methyl bromide production | methyl iodide production
1 | B1 | best | best
2 | B2 |  | best
3 | B3 | best | 

same assay, conditions: FIG. 7

Row | Molecule | methyl halide transferase activity | halide specificity of methyl halide production
4 | B4 | insignificant activity | 
5 | B5 | insignificant activity | 
6 | B6 |  | significant specificity for methyl iodide production
7 | B7 | insignificant activity | 
8 | B8 | insignificant activity | 
9 | B9 |  | significant specificity for methyl iodide production
10 | B10 | insignificant activity | 
11 | B11 | insignificant activity | 
